{"source": "patent US10632208B2", "about": "“Peptide-mediated drug delivery across epithelial barrier” (Purdue Research Foundation, priority 2017, dated 2020)", "molecules": {"B1": {"name": "LAP: Listeria adhesion protein, alcohol acetaldehyde dehydrogenase of Listeria monocytogenes, 866 aa, 94 kDa; recombinant, histidine-tagged form SEQ ID NO: 10 (protein)", "chain": "MAIKENAAQEVLEVQKVIDRLADNGQKALKAFESYNQEQVDNIVHAMALAGLDQHMPLAKLAVEETGRGLYEDKCIKNIFATEYIWNNIKNNKTVGVINEDVQTGVIEIAEPVGVVAGVTPVTNPTSTTLFKAIIAIKTRNPIIFAFHPSAQRCSSAAAKVVYDAAIAAGAPEHCIQWVEKPSLEATKQLMNHDKVALVLATGGAGMVKSAYSTGKPALGVGPGNVPAYIDKTAKIKRSVNDIILSKSFDQGMICASEQAVIVDKEVAKEVKAEMEANKCYFVKGAEFKKLESYVINPEKGTLNPDVVGKSPAWIANQAGFKVPEDTKILVAEIKGVGDKYPLSHEKLSPVLAFIEAANQAEAFDRCEEMLVYGGLGHSAVIHSTDKEVQKAFGIRMKACRIIVNAPSAQGGIGDIYNGFIPSLTLGCGSYGKNSVSQNVSATNLLNVKRIADRRNNMQWFKLPPKIFFEKYSTQYLQKMEGVERVFIVTDPGMGSFKYVDVVIEHLKKRGNDVAYQVFADVEPDPSDVTVYKGAELMKDFKPDTIIALGGGSAMDAAKGMWLFYEHPEASFFGLKQKFLDIRKRTFKYPKLGGKAKFVAIPTTSGTGSEVTPFAVITDKENNIKYPLADYELTPDVAIVDAQYVTTVPAHITADTGMDVLTHAIESYVSVMASDYTRGLSIRAIELVFENLRESVLTGDPDAREKMHNASALAGMAFANAFLGINHSLAHKIGPEFHIPHGRANAILMPHVIRYNALKPKKHALFPRYESFRADEDYARISRIIGFPAATTEEGVKSLVDEIIKLGKDVGIDMSLKGQNVAKKDLDAVVDTLADRAFMDQCTTANPKQPLVSELKEIYLEAYKGV", "modifications": "Listeria monocytogenes"}}, "key": {"IL-6": {"test_system": "IL-6", "assay": "ELISA of IL-6 in Caco-2 cell supernatants", "format": "cell-based, human", "conditions": "recombinant LAP 1 μg/mL, 8 h", "experimental": "A semi-quantitative membrane-based RayBio Human Inflammation Antibody Array kit (Ray Biotech) was used to analyze a panel of 40 inflammatory mediators in Caco-2 cell supernatant infected either with the WT or lap^− strain (MOI, ˜50) at 37° C. for 1 h. After killing the extracellular bacteria by gentamicin (50 μg/mL), the Caco-2 cells were incubated for an additional 7 h at 37° C. Recombinant LAP (1 μg/mL) from ClearColi was incubated for 8 h with Caco-2 cells. After immunoblotting, the reaction intensity was quantified using NIH ImageJ software. The data were normalized and expressed as the mean fold changes as a ratio of lap^−/WT±SEM. For the ELISA, Caco-2 cell supernatants were centrifuged (2,000 rpm at 4° C. for 10 min) following treatment as above, and the quantification of TNF-α and IL-6 in was performed using human TNF-α and IL-6 ELISA kits (Ray Biotech) as per manufacturer's instruction. The quantification of TNF-α and IL-6 protein levels was performed in the ileal tissue lysates from mice using mouse TNF-α and IL-6 ELISA kits (Ray Biotech) as per manufacturer's instruction."}, "NF-κB(p65)": {"test_system": "NF-κB(p65)", "assay": "Immunoblot of NF-κB activation in Caco-2 cytoplasmic and nuclear extracts", "format": "cell-based, human", "experimental": "To extract the proteins from Caco-2 cells, cells were seeded in 6-well plates for 14-21 days. Following treatment, the cells were washed, scraped from the bottom of 6-well plates, suspended in PBS, and pelleted by centrifugation. Total protein from Caco-2 cells was extracted using the M-PER Extraction Kit (Thermo Fisher Scientific). Detergent-insoluble (membrane) and detergent-soluble (cytosolic) proteins were isolated using a Mem-Per Eukaryotic Protein Extraction Kit (Thermo Fisher Scientific) while the cytosolic and nuclear proteins were extracted using NE-PER Extraction Reagent (Thermo Fisher Scientific). To extract proteins from ileal epithelial cells, the epithelial cell fraction from ileal tissues were isolated as described above and the detergent-insoluble and the detergent-soluble proteins were isolated using a Mem-Per Eukaryotic Protein Extraction Kit.\nTo extract total protein from intact bacterial cells, sample solvent buffer and sonication (3 cycles of […]) were used. To isolate the cell wall-associated proteins bacterial pellets were resuspended in 0.5 ml protein extraction buffer (0.5% SDS, 10 mM Tris at pH 6.9), and incubated at 37° C. for 30 min with agitation. The samples were centrifuged (14,000×g, 10 min, 4° C.), and the supernatants (containing cell wall-associated proteins) were retained. Halt proteases and phosphatase inhibitors (Thermo Fisher Scientific) were used during all of the protein extraction procedures. The protein concentrations were determined by BCA assay (Thermo Fisher Scientific), and separated on SDS-PAGE gels (10-12.5% polyacrylamide) and electro-transferred to polyvinylidene difluoride (PVDF) membrane (Millipore). The membranes were then blocked in 5% nonfat dry milk (NFDM) in 0.1 M Tris-buffered saline, pH 7.5 (TBS) containing 0.1% Tween 20 (TBST) for at least 1 h. All of the primary antibodies were diluted in 5% bovine serum albumin (BSA) or 5% NFDM in TBST and incubated overnight. Secondary antibodies (1:2000 in 5% NFDM in TBST) incubated for 1 h at 37° C., and a chemiluminescence method was performed using LumiGLO reagent (Cell Signaling). The membranes were exposed to X-ray films or visualized using the Chemi-Doc XRS system (Bio-Rad). To immunoprobe the same membrane with another antibody, the originally bound antibodies from the membranes were removed by incubating the membranes in Restore Western Blot Stripping Buffer (Thermo Fisher Scientific) according to the manufacturer's protocol. To compare the reaction intensities, the average band densities were determined using Quantity One software (Bio-Rad). Densitometry reports represent the mean±SEM after normalization to the loading control and is presented as % change of protein with the average for untreated cells (control) set at 100%. Immunoblots and densitometric reports are representative of 2-3 independent experiments."}, "NF-κB": {"test_system": "NF-κB", "assay": "NF-κB luciferase reporter assay in RAW 264.7 cells", "format": "cell-based, murine", "experimental": "The NF-κB Luciferase reporter RAW 264.7 cell line (Novus Biologicals), which expresses an optimized Renilla luciferase reporter gene (RenSP) under the transcriptional control of an NF-κB response element, was used. The cells were seeded (1×10^5 cells/well) into 96-well luminometer-compatible plates for 16 h and then treated with analytes for 6 h. Media from each well were aspirated, and then 100 μL of ice-cold PBS was added to each well. The plates were then frozen solid at −80° C. overnight to completely lyse the cells, thawed back to room temperature, and luciferase assays were performed using the LightSwitch Luciferase assay kit (Novus Biologicals). Luminescence was measured as the relative luminescence units (RLU) using Spectramax (Spectramax, Molecular Devices) and reported as the relative fold change compared with that of the control cells that were treated with media alone. Recombinant human or mouse TNF-α (R&D Systems) and polymyxin B, LPS (E. coli Serotype R515, Re, TLR grade), and proteinase K (each from Sigma-Aldrich) were used."}, "Hsp60 / IKK-β": {"biological_target": "T1, Hsp60 / IKK-β (Homo sapiens, UniProt P10809)", "T1 construct": "endogenous in cells; host or cells: Caco-2 (human colon carcinoma, ATCC HTB37)", "T1 sequence (P10809 27-573)": "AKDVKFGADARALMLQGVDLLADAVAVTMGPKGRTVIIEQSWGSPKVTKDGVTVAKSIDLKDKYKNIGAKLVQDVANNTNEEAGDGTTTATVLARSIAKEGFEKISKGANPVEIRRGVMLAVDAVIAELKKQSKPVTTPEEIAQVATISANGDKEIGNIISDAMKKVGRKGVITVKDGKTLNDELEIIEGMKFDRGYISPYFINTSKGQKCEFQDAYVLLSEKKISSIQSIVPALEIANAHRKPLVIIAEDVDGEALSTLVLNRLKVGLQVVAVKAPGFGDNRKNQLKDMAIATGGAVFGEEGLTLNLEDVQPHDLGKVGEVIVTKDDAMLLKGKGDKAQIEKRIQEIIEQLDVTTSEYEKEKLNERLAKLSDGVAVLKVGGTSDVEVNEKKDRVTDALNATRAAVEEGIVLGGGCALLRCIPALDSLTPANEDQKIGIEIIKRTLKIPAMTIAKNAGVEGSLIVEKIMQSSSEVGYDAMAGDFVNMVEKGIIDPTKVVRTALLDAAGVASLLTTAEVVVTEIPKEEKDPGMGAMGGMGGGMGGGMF", "assay": "Co-immunoprecipitation of Hsp60 and IKKβ from Caco-2 cell lysates", "format": "cell-based", "conditions": "LAP 1 μg/ml, 30 min", "experimental": "Caco-2 cells were treated with or without purified LAP (1 μg/mL) for 30 min, rinsed with cold PBS, and lysed in Nondiet P-40 (NP-40) lysis buffer (20 mM Tris HCl, pH 8,137 mM NaCl, 1% NP-40, 2 mM EDTA). The cell lysates were pre-cleared with 10 μl protein G agarose beads (MicroProtein Technologies) for 1 h and the lysates were incubated with 2 μg of anti-IKKβ, 2 μg of anti-Hsp60, rabbit serum or normal mouse serum overnight at 4° C. The lysates were further mixed with 20 μL protein G agarose beads for 3 h at 4° C. The beads were washed five times with 1 ml NP-40 lysis buffer. The protein precipitates were analyzed by immunoblotting, and the complexes were visualized by chemiluminescence assay."}, "[1]": {"conditions": "Caco-2 cells, LAP 1 μg/ml, 30 min (FIG. 5D)"}, "[2]": {"conditions": "LAP 1000 ng/mL or TNF-α 10 ng/mL"}, "[3]": {"conditions": "shRNA vector control Caco-2 cells, LAP 1 μg/mL (FIG. 5B)"}}}
{"molecule": "B1", "values": [{"measurement": "IL-6 production", "setting": "IL-6", "result": "significantly higher levels"}, {"measurement": "increase of IKK-β protein expression", "setting": "NF-κB(p65); [1]", "result": "53±2", "unit": "%"}, {"measurement": "increase of p65 protein expression", "setting": "NF-κB(p65); [1]", "result": "63±5", "unit": "%"}, {"measurement": "protein expression levels of IKK-β and p65", "setting": "NF-κB(p65); Hsp60 knocked-down (hsp60::shRNA) Caco-2 cells, LAP 1 μg/mL", "result": "basal protein expression levels"}, {"measurement": "increase of IKKα in the cytosol relative to untreated cells", "setting": "NF-κB(p65); LAP 1 μg/mL, 30 min", "result": "267±7", "unit": "%"}, {"measurement": "increase of P-p65 in the nucleus relative to untreated cells", "setting": "NF-κB(p65); LAP 1 μg/mL, 30 min", "result": "120±23", "unit": "%"}, {"measurement": "increase of p65 in the nucleus relative to untreated cells", "setting": "NF-κB(p65); LAP 1 μg/mL, 30 min", "result": "218±32", "unit": "%"}, {"measurement": "time of appearance of cytoplasmic phospho-IκBα (Ser32)", "setting": "NF-κB(p65); [2]", "result": 15, "unit": "min"}, {"measurement": "time of increase in nuclear p65 and P-p65", "setting": "NF-κB(p65); [2]", "result": 30, "unit": "min"}, {"measurement": "time by which most IκBα was degraded", "setting": "NF-κB(p65); LAP 1000 ng/mL, 0-120 min", "result": "≤ 45", "unit": "min"}, {"measurement": "time of rapid degradation of IκBα", "setting": "NF-κB(p65); LAP 1000 ng/mL, 0-120 min", "result": "≤ 15", "unit": "min"}, {"measurement": "increase of IKK-β protein expression", "setting": "NF-κB(p65); [3]", "result": "52±8", "unit": "%"}, {"measurement": "increase of p65 protein expression", "setting": "NF-κB(p65); [3]", "result": "54±8", "unit": "%"}, {"measurement": "NF-κB activation ability after polymyxin-B treatment", "setting": "NF-κB", "result": "retained the NF-κB activation ability"}, {"measurement": "NF-κB activation after proteinase-K treatment", "setting": "NF-κB", "result": "abolished"}, {"measurement": "NF-κB activation ability after heat treatment", "setting": "NF-κB; 100° C., 10 min", "result": "abolished the NF-κB activation ability"}, {"measurement": "NF-κB activation", "setting": "NF-κB; purified proteins, LPS positive control", "result": "NF-κB activation in a concentration-dependent manner"}, {"measurement": "interaction of Hsp60 with IKK-β", "setting": "Hsp60 / IKK-β", "result": "Hsp60 co-precipitation"}]}
